These results are taken from article doi:10.1101/2024.11.06.622366.

Where two headings read alike, the source gives them in different places.

In experiment [1] the target is 11S, large fragment of a split luciferase.
For experiment [2] the target is unchanged. The source holds these as a separate data set.
Experiment [3] shares this target. This is another data set of the same source.
The target is the same in experiment [4]. The source holds these as a separate data set.
Experiment [5] has the same target. The source holds these as a separate data set.
Experiment [6] shares this target. The source holds these as a separate data set.
The target is the same in experiment [7]. The source holds these as a separate data set.
The target is the same in experiment [8]. The source holds these as a separate data set.

Turning to “PINK1 DDL I111S (from UniProt Q9BXM7 78-581)”, in experiment [1], the Kd was 144 nM.

On to “PINK1(3EA) DDL (from UniProt Q9BXM7 78-581)”, for which, in experiment [2], the Kd amounted to 715 nM.

In experiment [3], “PINK1(3EA) DLD (from UniProt Q9BXM7 78-581)” yielded a dissociation constant (Kd) of 93.7 nM.

“PINK1(3EA) LDD (from UniProt Q9BXM7 78-581)” registered a Kd in experiment [4] of 284 nM.

“PINK1(ALALAL) DDL (from UniProt Q9BXM7 78-581)”: in experiment [5], the equilibrium dissociation constant (Kd) stood at 133 nM.

Regarding “PINK1Δ(1-50) DDL (from UniProt Q9BXM7 51-581)”, the dissociation constant Kd in experiment [6] amounted to 238 nM.

“PINK1Δ(1-91) DDL (from UniProt Q9BXM7 92-581)” had a dissociation constant (Kd) in experiment [7] of 187 nM.

“PINK1Δ(1-150) DDL (from UniProt Q9BXM7 151-581)”: the Kd in experiment [8] is 447 nM.
